For 16 sequences, protein production results are on record in a protein production outcome set (Wang et al. 2014).

This data set in a line: label from the status in PepcDB records.

In the case of “MSAMGAGPDHLFNLRNNFYLGAYQTAINNSEIANLSPENAVERDCLVFRSYIALGSYQLVISEIDESAATPLQAVKLLAMYLSTPQNKESTISSLKEWLADSTIGNNDTLRLIAGIIFMHEEDYNETLKHTHAGGTMDLYALNVQIFIKMHRAEYAEKQLRVMQQIDEDHTLTQLASAWLNLAVGGSKIQEAYLIFEDFSEKYPMTCLILNGKAVCCMQMGNFDEAETLLLEALNKDAKDPETLANLVVCSLHVGKSSSRHLSQLKLSHPEHILVKRVSSAEDNFERAVQLVA”, the protein production entry was “failed”.
With “MSANLKPGSQVNTDQKPEKTKVLILGGTGEMGQWFTRFFKQKGYEVTVWGKGGKTEIASKLGVPFASDLEKAVPESDILIVSVPINVTEETIAEFAPKMKSGSLLMDFTSIKVKPVEAMKKFAPSDVEILGTHPMFGPTIPTIRGQTVILVPVKGRSEKWFPVIRELFEEGGAHVEITTAAEHDRLVSVVQGLTHFAYITIGTTIDRLDFDIKKSRKFVSPVYAIMLDFVGRILGQNPYLYALIQMENPGVLEVHDAFIRECEELSRLVRAHDEESFVKKMKSAARKYGDTAHALRKSDKLINSRITEYETILNSVGKVCGFSHFYSGKIHVGILGKAGPDEIVLTKMVSKGTSPHIKNKFVKLKLENLRMLSESELWEWRKENLEHSTRDISVLIPEGADPEVILNAINTNKQLAACEISDIYKGVNQGDHKRINRGDYKEFNRIETEKEREEAKRLGVTYRITVFGDCDANSVEADVTSLLCGLGCRIREKNLKQIEKTEPKR” the entry was “failed”.
Next, “MSANSHFHSTHESHYQCAVCSSIDANPNSLAVNYQCLADSSVVGEFHVLPRHQGYTDLLHGGIASSLLDGAMTHCLLFRDIQALTAQLDVRYHAPIELDEHVTITAHCEGERRGIYQLVAQLLVNNEVRVTAKGKFIRPKEA”: “failed”; “MSAPCCGCGKTLDVAAMHARQRRVLWWVLAINAGSFALMLAGALHSGAASLLSGSLDNLGDALTYALSLAVVGASMAAKARVALLKAGLILLAALAVAAEIGWKLAHPQVPLFQSMGLVAAANFLANLVCLRLLWPYRDGDINLASAWACSRNDVYEGVAVLAASGAVWALGSGWPDLLIAVGLLVVFLRSAWQVARRAWAELGTAG”: “failed”; “MSAPLVYHHTPPALLPLYGKALLPKSGKNHPEAVQIPRLEASLLGVTTDIPALRDYMKVCNFQPGTRLPVTWPHILAFPLHLKLLTEPAFPLPLLGLVHLRNSITQHRPLAAGENLDLKVILDNQKRTDRGLEFDLVTEARASGRLIWEEVSTNLFRITNGPGKTSPKPKPELETYPFSEAIKAPENLGRQYAKVSGDRNPIHMHALSARAFGFPRAIAHGMWSKARALALLENQKGWKDGPVRASCQFKKPLLLPGNAMLNWQTGKDGWDFQLLNAKGDAPHLTGRIDWL”: “failed”.
Next, “MSASLPRTSATALSSTSPLSARDAAPPKRPRFLRGGVAFSLSPNRDNGLVTFRLDTIGTGLVFADSLSNLTAALATQGGGGAAVVQAPPGTGKTTLVPPLLANLVSEQSPGRPRVVVTQPRRVAARSAARRLASLDGSQLGRRVGYTVRGESKVSQDTVVEFVTPGILLRRLLADPGLEDVSAVVLDEVHERGLETDLLVGMLAEVRELRGDITVVAMSATLDAARFATLLGTGLDGGDPAPVVDCPSALYPLKVQWVPAREHRLDARGVSRLFLDHVAHTAATTHAAALAPDADVDALVFLPGAREVSDVATRLRGLVSGNVEVLELHGQIGPEAQDRAVSGREPGGLPRIIVSTSLAESSLTVPGVRVVIDSGLSREPRRDAGRGMSGLVTVSCSRASADQRAGRAARQGPGTVVRCYDQQAYAAAPAHQTPEISVADLTSAALVLACWGAPGGVDLKLPDAPPAAAMNDAVEVLRELGAVTAEGTVTAVGKTLARIPADPRLARALLDGSAVAGRRAAAETVALVAGGQRAPGADLNKLLSALRSGSDPGARRFAEDVQRMETLVRKEAAAVVRPKAAADVTAGEATGLVVALAFPDRVARRVPGDGSTTYLLSSGTRAGLPSGSSLSGHDWLAVAEVSRAQGRDAAGTGAVIRSAATLSAELAEAAAPDLLTEKVEAKFDQGRVMARLERRLGAIVLSSTPVRPTAESGRRAVSEALEKTGLSMIGWSPAADALRRRLALLHRELGSPWPDVREAALLSRLEDWLGPELEAVATGAAVSSINLVDPLRRLLPWPDAARLEDLVPERLEVPSGSRVRIDYPEVSDRSSGDHDDGRPVVAVKLQECFGWDSTPRLLAGRVPVLFHLLSPAGRPLAVTDDLASFWSGPYSQVRAEMRGRYPRHPWPEDPWTAQATAKTKNRM”: “failed”.
Take “MSATVPSTASSRAPATTGFRSFLPLIGAVVIWGGNWPVMKMGLAHISPLWFAACRFGSAALISFLVLGALRRLRLPSRQEWPLVIGVGLLQMGAFTALALWALQYVPPGRASVIAYATAIWVIPLSSLVLGERPSRLQWLATAFSYAGIAVIVAPALGGWELHTVMGLTMLLGASLAWSVSIIQLRANRAIRLGADMIPWECAVATVPLIALAWLRDGAPDLGAMVDIWPVIAYTGPLATALTFIVVLNVTQSLPPAATSIAMLGVPVIGLVLSTVAWHEQISLDLSIGLALIGMGVVTTALAPRLGRLAAR”: the protein production result is “failed”.
Next, “MSAVTYTFLGPQGTFTEAALMQVPGAADATRIPCTNVNTALERVRAGEADAAMVPIENSVEGGVTATLDAIATGQELRIIREALVPITFVLVARPGVELSDIKRISTHGHAWAQCRLWVDEHLPNADYVPGSSTAASAMGLLEDDAPYEAAICAPLIAAEQPGLNVLAEDIGDNPDAVTRFILVSRPGALPERTGADKTTVVVPLPEDHPGALMEILDQFASRGVNLSRIESRPTGQYLGHYFFSIDADGHATDSRVADALAGLHRISPATRFLGSYARADKQPAVVAPHTSDAAFASAHAWVDSILKGS”: “not failed”; “MSCCIANAIRWDVSLLIHRSMSSSMSSVQPTSPVSDSPSLGEMHASVAVSRRGHWGFRLLAFLGPGYMVSVGYMDPGNWATGLAGGSRFGYMLLSVILLSNVMAIVLQALAARLGIASDMDLAQACRARYSRGTNLALWAVCELAIIACDLAEVIGTAIALNLLLGVPIILGAVITAVDVVLVLLLMHRGFRALEAFVIALLLVIFGCFVVQIVLAAPPLQEVLGGFVPRWQVVADPQALYLAIGIVGATVMPHNLYLHSSIVQTRAYPRTPVGRRSALRWAVADSTLALMLALFINASILILAAAVFHAQHHFDVEEIEQAYQLLAPVLGVGVAATLFATALLASGINSTVTATLAGQIVMEGFLRLRLRPWLRRVLTRGLAIVPVIVVVALYGEQGTGRLLLLSQVILSMQLPFAVIPLLRCVADRKVMGALVAPRWLMVVAWLIAGVIVVLNVKLLGDYAVHLMVGVSD”: “failed”.
For the sequence “MSCTGFWRKLASGEECGAAARLLGAVLAIPAALYGLVVRLRALAYARGLSTVRHLDRPVISVGNLTVGGTGKTPMVAYLARRLMARGKRVAVISRGYGGSLEGETRIVSDGRTIVLSAAEAGDEPVHLATSVPGLMTVIGTDRYTAGLLALEQLDPDVFILDDGYQHLRLHRDLNILLMDCNRPLGNGRTLPAGLLREPQTAVRRADLVVYTRCTGGKAPAVHGMIPSCRAGHALTGAALLPDGEVQPLAALRGLRGVACAGIAEPEGFFDALRREGLDIVAAIPFADHASYGEREVSTLREAAAGADYLITTGKDGVKLSAHLARLLPVYATVLEMRPLDPAPLEAALDKVL”, the protein production entry is “failed”.
Next, “MSDAHVLKSRLEWGEPAFTILDVRDRSTYNDGHIMGAMAMPIEDLVDRASSSLEKSRDIYVYGAGDEQTSQAVNLLRSAGFEHVSELKGGLAAWKAIGGPTEGIIESRLEHHHHHH”: “failed”; “MSDARAWDSPDDAHRLIAKALAELVAEDPTIPPHPYLSRHLAQHAARGRVLDDTHVPLAILPWESSRNVRILLRQTGATQQQDWLEAWAGIEPFVRDADPDSRLTSLHLAHHTATCRRLSLTARPVSERRLAGSRITPLWSDWTAPDNVLAVSDTLVESLAHTTTAPGRTLLISGDSHGTIRMWEANGTPAGAPLHTHGGAIQHLLPLQHDLLVSGGTDGAVRVWHSTRGQQLVEPVRRPHTWVSALALFEPADGARFLLVAHSDGHLTALDPVTFEPADTPLPALDPAPAILTPLATADGTALVIAQGRRVVVWRPGRGVVHISEHQGEVRAVVALPSGGRYAVCDDSGYLGFWDVSTGHETVAAGPAHDGPVIALTTLAVDGRQTVVSAGLDHTLRVWDADTGRPVGGALEGHTDPPVALTTLPGEGQELVVSAAADHTLRRWKLAGHGTRPRRPVRRPVTAAALPGPTVVPALLAAVADGAGTALWNVRTGRHVSLPAGEPPVTAFAWATVHGDPVLLTAHSDAAVRLWSLYAGNAVTPSLRGTLLNHSLPVQAMTAFPHAGATLLATGGADGSVRLWHLGDRLELAHWDDHALSVRDVTLLGTGEDALIVSAGSDGTVRLWDPGTRRASGGPVHCGQQVVHAVTTVAPHPDEAALIASGGEDGTVRLWDPTTRQPVGDPLDARDGAVTALASFHTPAGRPCLAAAGPSGTIHLWDVAARTHLLRIVTGNPLSTLAARQTGEPFTEHPVLLAAGTAGVCMFDVRLERLR”: “failed”; “MSDAVEEAEARAVEPVGAKQRDAFISYSQSKNAPLAKQLQRGLERLAVSRFRPMRMSVFRDVTSLPANHDLWQSIQRELARSRYFILLASPEAAASPWVAREVDYWLRERDTEHLLIAVASGEIVWDDRAGDFDWRKTTSLPRNLAGHFTAAPLWVDLREIGERSHHSMRYPPFRAAVATLASPLHGRPKEELEHDDFRQLRFVKRLSWSGVALLVALLVLAVYGFFDASRQREAALSQARTSASQALAARSGQLLGTSPNQAAQYALYAEETRSTPESRRALAQAVTAAPYARRRLRADADSVTDMQGASRPAATDVVLSGDGTTAAYRSVFDDDRAVRLYDVPSARQSRVVRAEGTPRALSRDGRVLAMEVYLNRVQLWDTRSGRLLSTMATGHTENLPHVGHGLHALALSPDGRWVAASHYTPEGEAFAVVWRASDGREITRVPVSDARVGLGFSADGSRLTLVDQDRREVREFRTDSARWEAARSLPGMPGSTAEALRYSEVLLFDGARKALTRTSERAEVWDLEQRRRIAVRSLGPYEDMTVADDKGIFLLGGQDGTVRLYDAALRPGTTLGRLTRPASTIAMSADGTQVVVASYGGELNLFTTGVRRGQQVAFDEKDFTFGDLTPDGRMAVHRSEGRTEFWDPATGRRLGVIPYANLSVNLEDTAYTLSGDKRYVGMQSVEGFEDEGRFDVWDLRTGRRTDCGTAVGGSSFSPIRRPGLSFLPGDRYVVGEWNGAVELLDTRTCTRSTVTEDSGRFALSGDRRTLVLLNDDGVDTWRWDGDHAFARAARTTLPSEAHPVDMSVDHEGRQAAFSDRESHVYVVRLDSGERVRATGYLPDKTDAVAFSRDGRLLFQGFMTESTRGVRVLDAGSGDQLDIWTTDPPTGSVQPNEGMQVVPGPADDILTLGPDHKVVRRTVGVGAWHDLLCGLVSQPLPARERDRYLKDLDVEDPCR”: “failed”.
With “MSDDNSHSSDTVNSKKGFFSLLLSQLFHGEPKNRDELLALIRDSGQNELIDEDTRDMLEGVMDIADQRVRDIMIPRSQMITLKRNQTLDECLDVIIESAHSRFPVISEDKDHIEGILMAKDLLPFMRSDAEAFSMDKVLRTAVVVPESKRVDRMLKEFRSQRYHMAIVIDEFGGVSGLVTIEDILELIVGEIEDEYDEEDDIDFRQLSRHTWTIRALASIEDFNDAFGTHFSDEEVDTIGGLVMQAFGHLPARGETIDIDGYQFKVAMADSRRIIQVHVRIPDDSPQPKLDE” the entry was “not failed”; with “MSDEWIKIFESDFYVREMIKVWDEGEKWANWIDEVVSKYKLEKKVLDIPCGIGRVSYFLANRGYKVTGIDISERMISMARSNIQNGKFIVGDMRKIKEIIGNEKYDLVINIYNSLGYYSEEDDLKILESLRDSTRKIVVINLDNRDYIIYNRPNEYYTYIPPYLVYSKVEFEQETSRLKIYRKYYLNDKEVGEMIYEQRLYSIHEILALLKKAGLQPIEVLSGYSWKKFSIMDPEMTIIATPA”, “failed”.
Next, “MSDFNLVGVIRVMPTDPDVNLDELEEKLKKVIPEKYGLAKVEREPIAFGLVALKFYVLGRDEEGYSFDEVAEKFEEVENVESAEVETVSRI”: “not failed”.
